According to paper PMC5177931:

Biological target: T1, Myc-tagged PDC E1, P08559
T1 chain: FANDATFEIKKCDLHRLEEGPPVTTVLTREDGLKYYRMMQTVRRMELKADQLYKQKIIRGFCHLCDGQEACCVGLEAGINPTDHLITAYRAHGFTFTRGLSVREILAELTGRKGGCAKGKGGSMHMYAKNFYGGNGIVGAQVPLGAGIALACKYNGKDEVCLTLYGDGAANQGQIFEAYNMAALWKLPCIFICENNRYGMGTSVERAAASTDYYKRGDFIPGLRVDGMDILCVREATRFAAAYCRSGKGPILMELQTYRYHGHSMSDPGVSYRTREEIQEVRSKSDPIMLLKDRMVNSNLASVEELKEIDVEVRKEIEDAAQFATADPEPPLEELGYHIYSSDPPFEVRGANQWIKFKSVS
Experiment: co-immunoprecipitation (anti-Myc IP, western blot for Flag-STAT3), band intensity printed under lanes
Conditions: chain shown with the change; 293T cells, transient transfection; printed intensities relative to EV lane = 1; parent: 9.5

B1: Flag-STAT3 WT, P40763 K685R; K707R; K709R (protein)
chain: MAQWNQLQQLDTRYLEQLHQLYSDSFPMELRQFLAPWIESQDWAYAASKESHATLVFHNLLGEIDQQYSRFLQESNVLYQHNLRRIKQFLQSRYLEKPMEIARIVARCLWEESRLLQTAATAAQQGGQANHPTAAVVTEKQQMLEQHLQDVRKRVQDLEQKMKVVENLQDDFDFNYKTLKSQGDMQDLNGNNQSVTRQKMQQLEQMLTALDQMRRSIVSELAGLLSAMEYVQKTLTDEELADWKRRQQIACIGGPPNICLDRLENWITSLAESQLQTRQQIKKLEELQQKVSYKGDPIVQHRPMLEERIVELFRNLMKSAFVVERQPCMPMHPDRPLVIKTGVQFTTKVRLLVKFPELNYQLKIKVCIDKDSGDVAALRGSRKFNILGTNTKVMNMEESNNGSLSAEFKHLTLREQRCGNGGRANCDASLIVTEELHLITFETEVYHQGLKIDLETHSLPVVVISNICQMPNAWASILWYNMLTNNPKNVNFFTKPPIGTWDQVAEVLSWQFSSTTKRGLSIEQLTTLAEKLLGPGVNYSGCQITWAKFCKENMAGKGFSFWVWLDNIIDLVKKYILALWNEGYIMGFISKERERAILSTKPPGTFLLRFSESSKEGGVTFTWVEKDISGKTQIQSVEPYTKQQLNNMSFAEIIMGYKIMDATNILVSPLVYLYPDIPKEEAFGRYCRPESQEHPEADPGSAAPYLRTRFICVTPTTCSNTIDLPMSPRTLDSLMQFGNNGEGAEPSAGGQFESLTFDMELTSECATSPM
B1 gave a response of 2.4.
